Measured values published in paper PMC9398908, “GLP-1-mediated delivery of tesaglitazar improves obesity and glucose metabolism in male mice” (Nature Metabolism, 2022).

How the values were obtained:
C57BL/6J DIO mice = test: Urinary albumin:creatinine ratio in DIO mice (Extended Data Fig. 2g); assay type: in vivo, mouse; conditions: 14-day treatment, 50 nmol kg−1 per day, in words
Excerpt: Frozen urine samples from heterozygous GIPR^dn mice in a CD1 background (n = 3) served as positive controls. […] For each treatment group, uACR was computed as a ratio of urinary albumin (mg ml^−1) to urinary creatinine (mg ml^−1).

in vivo [1] = test: in vivo; set-up: species or system C57BL6J mice; conditions: mouse
Procedure: (§1) Plasma concentration-time profiles were analysed in C57BL6J mice and Sprague Dawley rats by a non-compartmental method using sparse sampling in Pharsight Phoenix WinNonLin v.6.4 software, and the resulting terminal half-life (T1/2), maximum plasma concentration (Cmax), time for maximum plasma concentration (Tmax), and AUC from zero to last valid measurable concentration-time point (AUC0-t) were determined.

in vivo [2] = test: in vivo; set-up: species or system Sprague Dawley rats; conditions: Sprague Dawley, rat
Procedure: as §1

[3] = C57BL6J, 100 nmol/kg, concentration (PK, Extended Data Fig. 1c)
[4] = male, C57BL6/J, 100 nmol/kg, concentration (PK, Extended Data Fig. 1c)
[5] = 100 nmol/kg, concentration (PK, Extended Data Fig. 1c)
[6] = male, 100 nmol/kg, concentration (PK, Extended Data Fig. 1c)

CCO[C@@H](Cc1ccc(OCCc2ccc(OS(C)(=O)=O)cc2)cc1)C(=O)N[C@@H](CCC(=O)NCCCC[C@H](NC(=O)[C@H](CO)NC(=O)[C@@H]1CCCN1C(=O)[C@@H]1CCCN1C(=O)[C@@H]1CCCN1C(=O)[C@H](C)NC(=O)CNC(=O)[C@H](CO)NC(=O)[C@H](CO)NC(=O)[C@@H]1CCCN1C(=O)CNC(=O)CNC(=O)[C@H](CCCCN)NC(=O)[C@@H](NC(=O)[C@H](CC(C)C)NC(=O)[C@H](Cc1c[nH]c2ccccc12)NC(=O)[C@H](C)NC(=O)[C@@H](NC(=O)[C@H](Cc1ccccc1)NC(=O)[C@H](CCC(=O)O)NC(=O)[C@H](CCCCN)NC(=O)[C@H](C)NC(=O)[C@H](C)NC(=O)[C@H](CCC(N)=O)NC(=O)[C@H](CCC(=O)O)NC(=O)[C@H](CCC(=O)O)NC(=O)[C@H](CC(C)C)NC(=O)[C@H](Cc1ccc(O)cc1)NC(=O)[C@H](CO)NC(=O)[C@H](CO)NC(=O)[C@@H](NC(=O)[C@H](CC(=O)O)NC(=O)[C@H](CO)NC(=O)[C@@H](NC(=O)[C@H](Cc1ccccc1)NC(=O)[C@@H](NC(=O)CNC(=O)[C@H](CCC(=O)O)NC(=O)C(C)(C)NC(=O)[C@@H](N)Cc1c[nH]cn1)[C@@H](C)O)[C@@H](C)O)C(C)C)[C@@H](C)CC)C(C)C)C(N)=O)C(=O)O [GLP-1RA/tesaglitazar, GLP-1 Aib2 Glu16 CEX Lys40/tesaglitazar conjugate]
urinary albumin:creatinine ratio (C57BL/6J DIO mice): likewise not changed
level at time molar at 10 min (in vivo [1]; [3]): 246 nM
level at time molar at 0.5 h (in vivo [1]; [3]): 314 nM
level at time molar at 1 h (in vivo [1]; [3]): 131 nM
AUC(0-t) (in vivo [1]; male, C57BL6/J): 0.505 µM·h
Cmax (in vivo [1]; male, C57BL6/J): 278 nM
half-life (in vivo [1]; male, C57BL6/J): 1.1 h
level at time molar at 2 h (in vivo [1]; [4]): 87.6 nM
level at time molar at 4 h (in vivo [1]; [4]): 21.6 nM
level at time molar at 4 h (in vivo [2]; [5]): 20.5 nM
AUC(0-t) (in vivo [2]; male): 0.174 µM·h
Cmax (in vivo [2]; male): 37.5 nM
half-life (in vivo [2]; male): 2.54 h
level at time molar at 10 min (in vivo [2]; [6]): 41.7 nM
level at time molar at 1 h (in vivo [2]; [6]): 40.3 nM
level at time molar at 2 h (in vivo [2]; [6]): 26.8 nM
level at time molar at 4 h (in vivo [2]; [6]): 21.2 nM

CC[C@H](C)[C@H](NC(=O)[C@H](Cc1ccccc1)NC(=O)[C@H](CCC(=O)O)NC(=O)[C@H](CCCCN)NC(=O)[C@H](C)NC(=O)[C@H](C)NC(=O)[C@H](CCC(N)=O)NC(=O)[C@H](CCC(=O)O)NC(=O)[C@H](CCC(=O)O)NC(=O)[C@H](CC(C)C)NC(=O)[C@H](Cc1ccc(O)cc1)NC(=O)[C@H](CO)NC(=O)[C@H](CO)NC(=O)[C@@H](NC(=O)[C@H](CC(=O)O)NC(=O)[C@H](CO)NC(=O)[C@@H](NC(=O)[C@H](Cc1ccccc1)NC(=O)[C@@H](NC(=O)CNC(=O)[C@H](CCC(=O)O)NC(=O)C(C)(C)NC(=O)[C@@H](N)Cc1c[nH]cn1)[C@@H](C)O)[C@@H](C)O)C(C)C)C(=O)N[C@@H](C)C(=O)N[C@@H](Cc1c[nH]c2ccccc12)C(=O)N[C@@H](CC(C)C)C(=O)N[C@H](C(=O)N[C@@H](CCCCN)C(=O)NCC(=O)NCC(=O)N1CCC[C@H]1C(=O)N[C@@H](CO)C(=O)N[C@@H](CO)C(=O)NCC(=O)N[C@@H](C)C(=O)N1CCC[C@H]1C(=O)N1CCC[C@H]1C(=O)N1CCC[C@H]1C(=O)N[C@@H](CO)C(=O)N[C@@H](CCCCN)C(N)=O)C(C)C [GLP-1RA, GLP-1 Aib2 Glu16 CEX Lys40]
level at time molar at 0.5 h (in vivo [1]; [3]): 435 nM
level at time molar at 1 h (in vivo [1]; [3]): 219 nM
AUC(0-t) (in vivo [1]; male, C57BL6/J): 0.399 µM·h
Cmax (in vivo [1]; male, C57BL6/J): 361 nM
level at time molar at 4 h (in vivo [2]; [5]): 10.7 nM
AUC(0-t) (in vivo [2]; male): 0.131 µM·h
Cmax (in vivo [2]; male): 41.3 nM
half-life (in vivo [2]; male): 2.13 h
level at time molar at 0.5 h (in vivo [2]; [6]): 30.7 nM
level at time molar at 2 h (in vivo [2]; [6]): 26.1 nM
level at time molar at 4 h (in vivo [2]; [6]): 15.8 nM
